# Measured values taken from patent US20130337438A1 (JAPAN HEALTH SCIENCES FOUNDATION, published 2013).
# T1: HPV33 L1/L2-capsid (human papillomavirus type 33, UniProt P06418 1-467; P06416 1-499)
# T1 construct: Capsid of co-expressed L1 and L2 from 293FT cells; The pseudovirus is the same capsid with a reporter plasmid; also called L1/L2-capsid of type 33; HPV33 pseudovirus
# T1 sequence 1: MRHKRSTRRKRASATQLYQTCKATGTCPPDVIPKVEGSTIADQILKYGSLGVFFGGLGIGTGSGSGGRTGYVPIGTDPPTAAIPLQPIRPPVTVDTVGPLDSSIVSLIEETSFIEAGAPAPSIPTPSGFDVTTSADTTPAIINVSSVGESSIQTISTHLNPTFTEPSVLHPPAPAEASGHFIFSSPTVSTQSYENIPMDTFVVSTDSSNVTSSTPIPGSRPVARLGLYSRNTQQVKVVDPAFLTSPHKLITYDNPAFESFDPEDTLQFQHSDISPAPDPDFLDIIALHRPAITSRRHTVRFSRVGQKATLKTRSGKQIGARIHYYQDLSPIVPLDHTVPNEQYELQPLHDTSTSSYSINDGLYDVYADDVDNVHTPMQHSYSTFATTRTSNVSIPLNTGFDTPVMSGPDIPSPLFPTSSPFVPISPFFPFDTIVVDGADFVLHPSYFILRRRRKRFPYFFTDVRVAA
# T1 sequence 2: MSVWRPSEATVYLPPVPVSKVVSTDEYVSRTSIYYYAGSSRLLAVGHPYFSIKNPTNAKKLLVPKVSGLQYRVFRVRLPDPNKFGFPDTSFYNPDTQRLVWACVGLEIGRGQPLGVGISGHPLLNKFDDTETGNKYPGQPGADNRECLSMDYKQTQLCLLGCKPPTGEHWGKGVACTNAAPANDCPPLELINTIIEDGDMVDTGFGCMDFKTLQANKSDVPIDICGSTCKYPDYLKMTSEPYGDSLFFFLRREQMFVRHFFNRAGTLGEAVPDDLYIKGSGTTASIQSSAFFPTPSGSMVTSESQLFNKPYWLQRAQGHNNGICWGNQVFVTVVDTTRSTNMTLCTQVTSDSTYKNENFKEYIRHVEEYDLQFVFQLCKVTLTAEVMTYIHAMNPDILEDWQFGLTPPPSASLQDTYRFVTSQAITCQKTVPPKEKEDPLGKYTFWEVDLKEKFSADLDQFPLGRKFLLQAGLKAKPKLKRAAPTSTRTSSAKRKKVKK
# B1: monoclonal antibody 24B (antibody, V domains shown)
# VH: EVQLQQSGTVLARPGASVKMSCKASVYSFPSNWMHWVKQRPGQGLEWIGAIYPGTGATRYNQKFKDKAKLTAVTSADTAYMELSSLTDEDSAVYYCTGYSLYWGQGTILTVSS
# VL: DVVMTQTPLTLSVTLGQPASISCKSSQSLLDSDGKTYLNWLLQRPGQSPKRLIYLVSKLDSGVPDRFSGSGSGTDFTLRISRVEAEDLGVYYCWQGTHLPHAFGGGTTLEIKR
# notes: Used as mouse ascites or as antibody purified from ascites; also called Mouse-Mouse hybridoma 24B (FERM BP-11305)
# Target: T1, HPV33 L1/L2-capsid
# Test: ELISA on immobilized L1/L2-capsid, ascites 1:100
binder,measurement,value
B1,binding result,binds
